These results are taken from PMC3190825.

Broadly, the Kd is the free concentration of one partner at which half of the binding sites on the other are occupied at equilibrium, for simple one-to-one binding.

Holding throughout (assay): SPR
On the technique in general: Surface plasmon resonance follows binding to a sensor surface in real time, without labels.

Assay [1] has as its target Recombinant B6N fragment of protein β (single copy) (group B Streptococcus).
Assay [2] addresses IgABR tandem construct of protein β (group B Streptococcus).
Assay [3] addresses B6N tandem construct of protein β (group B Streptococcus).

As to “Recombinant hSiglec-5-Fc chimera (from UniProt O15389 17-441) (Fc fusion)”, in assay [1], the dissociation constant Kd is 14 nM.

Purified human IgA (natural protein) had a Kd in assay [2] of 61 nM.

B1: Recombinant hSiglec-5-Fc chimera (Fc fusion)
chain: EKPVYELQVQKSVTVQEGLCVLVPCSFSYPWRSWYSSPPLYVYWFRDGEIPYYAEVVATNNPDRRVKPETQGRFRLLGDVQKKNCSLSIGDARMEDTGSYFFRVERGRDVKYSYQQNKLNLEVTALIEKPDIHFLEPLESGRPTRLSCSLPGSCEAGPPLTFSWTGNALSPLDPETTRSSELTLTPRPEDHGTNLTCQMKRQGAQVTTERTVQLNVSYAPQTITIFRNGIALEILQNTSYLPVLEGQALRLLCDAPSNPPAHLSWFQGSPALNATPISNTGILELRRVRSAEEGGFTCRAQHPLGFLQIFLNLSVYSLPQLLGPSCSWEAEGLHCRCSFRARPAPSLCWRLEEKPLEGNSSQGSFKVNSSSAGPWANSSLILHGGLSSDLKVSCKAWNIYGSQSGSVLLLQGRSNLGTGVVPAAL
modifications: 125I (chloramine-T method) in the assays with radiolabeled hSiglec-5
In assay [3], B1 showed a Kd of 3.5 nM.
